The values below come from PMC6630525.

Assay [1] has as its target full-length Arabidopsis thaliana NAP1-Related Protein 1 (AtNRP1-His) (Arabidopsis thaliana) (UniProt Q9CA59). Nature of the assay: ITC; H2A-H2B (200-210 µM) in the syringe, AtNRP1/AtNRP2 (20 µM) in the cell; 25 °C; 20 mM PIPES pH 7.4, 300 mM NaCl; sequential binding site model.
For assay [2], the target named is full-length Arabidopsis thaliana NAP1-Related Protein 2 (AtNRP2-His) (Arabidopsis thaliana) (UniProt Q8LC68). The description is as above.
Assay [3] deals with full-length Arabidopsis thaliana NAP1-Related Protein 1 (AtNRP1-His) (Arabidopsis thaliana) (UniProt Q9CA59). Nature of the assay: native gel or EMSA; native polyacrylamide gel; increasing amounts of H2A-H2B dimer titrated into a constant amount (5 µM) of AtNRP1/2 proteins. Background: A gel shift assay detects complexes by their altered migration in electrophoresis.
Assay [4] deals with full-length Arabidopsis thaliana NAP1-Related Protein 2 (AtNRP2-His) (Arabidopsis thaliana) (UniProt Q8LC68). The assay is described as above.

full-length Arabidopsis thaliana NAP1-Related Protein 1 (AtNRP1-His) (Arabidopsis thaliana), sequence (Q9CA59 whole entry): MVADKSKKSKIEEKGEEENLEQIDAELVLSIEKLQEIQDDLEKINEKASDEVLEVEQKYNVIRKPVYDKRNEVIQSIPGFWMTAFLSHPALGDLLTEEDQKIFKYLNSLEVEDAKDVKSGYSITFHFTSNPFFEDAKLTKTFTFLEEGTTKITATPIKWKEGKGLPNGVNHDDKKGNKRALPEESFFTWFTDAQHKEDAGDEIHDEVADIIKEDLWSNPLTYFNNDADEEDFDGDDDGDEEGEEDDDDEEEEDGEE
full-length Arabidopsis thaliana NAP1-Related Protein 2 (AtNRP2-His) (Arabidopsis thaliana), sequence (Q8LC68 other isoform, or with tags, fused parts or gaps): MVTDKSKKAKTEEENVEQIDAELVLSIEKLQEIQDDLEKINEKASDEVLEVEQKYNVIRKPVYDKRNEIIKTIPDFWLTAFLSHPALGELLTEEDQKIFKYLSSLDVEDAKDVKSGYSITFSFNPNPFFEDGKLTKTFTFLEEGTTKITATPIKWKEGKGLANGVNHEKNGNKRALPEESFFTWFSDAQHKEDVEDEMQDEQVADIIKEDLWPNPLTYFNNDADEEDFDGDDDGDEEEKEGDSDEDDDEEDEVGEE
Arabidopsis thaliana histone H2A-H2B dimer, sequence (Q9LD28 whole entry): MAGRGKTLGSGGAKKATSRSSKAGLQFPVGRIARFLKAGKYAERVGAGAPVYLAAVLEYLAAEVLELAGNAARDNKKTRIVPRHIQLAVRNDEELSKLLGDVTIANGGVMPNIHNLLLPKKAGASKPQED
Arabidopsis thaliana histone H2A-H2B dimer, sequence (Q9LQQ4 whole entry): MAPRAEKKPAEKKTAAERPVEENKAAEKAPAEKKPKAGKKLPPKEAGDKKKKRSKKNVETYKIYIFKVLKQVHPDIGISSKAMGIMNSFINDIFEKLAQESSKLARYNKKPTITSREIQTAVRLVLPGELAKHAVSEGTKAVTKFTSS

For “Arabidopsis thaliana histone H2A-H2B dimer (from UniProt Q9LD28 1-130; Q9LQQ4 1-148) (complex)”, in assay [1], the Kd1 (sequential binding model, first site) stood at 130 nM; the Kd2 (sequential binding model, second site) was found to be 2.4 µM; the dH1 (sequential binding model, first site) was determined as 8.51 kcal/mol; the dH2 (sequential binding model, second site) is 6 kcal/mol. In assay [2], the Kd1 (sequential binding model, first site) came to 39.6 nM; the Kd2 (sequential binding model, second site) is 1 µM; the dH1 (sequential binding model, first site) came to 7.28 kcal/mol; the dH2 (sequential binding model, second site) turned out to be 1.33 kcal/mol. In assay [3], this substance showed a stoichiometry N (H2A-H2B dimers per NRP dimer) of 2. For the same substance, the stoichiometry N (H2A-H2B dimers per NRP dimer) in assay [4] worked out at 2.
